Assays:
[1] = test system: C[C@@H]1O[C@H](OP(=O)(O)O)[C@@H](O)[C@H](O)[C@@H]1O; test: purified protein; settings: pyrophosphorylase activity, 400 μM GTP, 10 mM MgCl2, pH 7.5, 37 °C
[2] = test system: Nc1nc2c(ncn2[C@@H]2O[C@H](COP(=O)(O)OP(=O)(O)OP(=O)(O)O)[C@@H](O)[C@H]2O)c(=O)[nH]1; test: purified protein; settings: pyrophosphorylase activity, 250 μM Fuc-1-P, 10 mM MgCl2, pH 7.5, 37 °C
[3] = target: T1, BfFKP (Bacteroides fragilis, UniProt Q58T34); test: thermal shift, SYPRO orange; assay type: binding; settings: 2 mM L-fucose, pH 7.0; lower melting transition; domain not assigned
T1 construct: gene fkp; codon-optimized gene in pET vector, E. coli BL21(DE3) with GroEL/GroES/Trigger Factor; Ni-IMAC; no solubility tag
T1 sequence (Q58T34 whole entry): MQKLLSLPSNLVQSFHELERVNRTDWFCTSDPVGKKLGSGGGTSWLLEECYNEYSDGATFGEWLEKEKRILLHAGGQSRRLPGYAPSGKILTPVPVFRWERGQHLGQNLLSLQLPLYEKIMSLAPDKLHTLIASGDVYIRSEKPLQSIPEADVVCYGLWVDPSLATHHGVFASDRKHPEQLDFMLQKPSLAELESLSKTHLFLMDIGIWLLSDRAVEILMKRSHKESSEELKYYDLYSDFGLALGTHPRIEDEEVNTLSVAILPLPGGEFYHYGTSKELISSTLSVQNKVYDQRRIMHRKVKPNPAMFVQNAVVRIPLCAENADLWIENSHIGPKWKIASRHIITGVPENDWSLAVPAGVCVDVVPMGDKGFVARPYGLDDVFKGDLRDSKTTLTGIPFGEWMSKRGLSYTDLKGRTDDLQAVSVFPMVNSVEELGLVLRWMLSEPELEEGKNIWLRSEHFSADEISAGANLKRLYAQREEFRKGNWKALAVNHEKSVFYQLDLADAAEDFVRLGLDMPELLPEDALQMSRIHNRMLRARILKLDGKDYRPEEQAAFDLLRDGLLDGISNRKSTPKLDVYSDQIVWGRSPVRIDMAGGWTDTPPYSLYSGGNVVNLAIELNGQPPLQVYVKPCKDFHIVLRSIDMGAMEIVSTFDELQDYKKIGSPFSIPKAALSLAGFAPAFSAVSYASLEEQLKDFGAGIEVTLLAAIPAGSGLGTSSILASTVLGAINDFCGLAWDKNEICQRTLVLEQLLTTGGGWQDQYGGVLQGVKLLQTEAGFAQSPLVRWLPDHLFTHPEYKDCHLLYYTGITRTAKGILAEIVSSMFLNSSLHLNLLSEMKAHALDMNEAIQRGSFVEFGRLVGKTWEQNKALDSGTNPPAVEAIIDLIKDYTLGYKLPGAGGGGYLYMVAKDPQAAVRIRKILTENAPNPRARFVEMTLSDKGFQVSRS
Source text: thermal shift, SYPRO orange on BfFKP

[4] = target: T2, TxFKP (Thermophagus xiamenensis, UniProt A0A1I2DJ10); test: thermal shift, SYPRO orange; assay type: binding; settings: 2 mM L-fucose, pH 7.0; Tm2 assigned to FUK domain
T2 construct: gene SAMN05444380_11920; codon-optimized gene in pET-28a, E. coli BL21(DE3) with GroEL/GroES/Trigger Factor; Ni-IMAC; GroEL (~60 kDa) contaminant remains
T2 sequence (A0A1I2DJ10 1-954): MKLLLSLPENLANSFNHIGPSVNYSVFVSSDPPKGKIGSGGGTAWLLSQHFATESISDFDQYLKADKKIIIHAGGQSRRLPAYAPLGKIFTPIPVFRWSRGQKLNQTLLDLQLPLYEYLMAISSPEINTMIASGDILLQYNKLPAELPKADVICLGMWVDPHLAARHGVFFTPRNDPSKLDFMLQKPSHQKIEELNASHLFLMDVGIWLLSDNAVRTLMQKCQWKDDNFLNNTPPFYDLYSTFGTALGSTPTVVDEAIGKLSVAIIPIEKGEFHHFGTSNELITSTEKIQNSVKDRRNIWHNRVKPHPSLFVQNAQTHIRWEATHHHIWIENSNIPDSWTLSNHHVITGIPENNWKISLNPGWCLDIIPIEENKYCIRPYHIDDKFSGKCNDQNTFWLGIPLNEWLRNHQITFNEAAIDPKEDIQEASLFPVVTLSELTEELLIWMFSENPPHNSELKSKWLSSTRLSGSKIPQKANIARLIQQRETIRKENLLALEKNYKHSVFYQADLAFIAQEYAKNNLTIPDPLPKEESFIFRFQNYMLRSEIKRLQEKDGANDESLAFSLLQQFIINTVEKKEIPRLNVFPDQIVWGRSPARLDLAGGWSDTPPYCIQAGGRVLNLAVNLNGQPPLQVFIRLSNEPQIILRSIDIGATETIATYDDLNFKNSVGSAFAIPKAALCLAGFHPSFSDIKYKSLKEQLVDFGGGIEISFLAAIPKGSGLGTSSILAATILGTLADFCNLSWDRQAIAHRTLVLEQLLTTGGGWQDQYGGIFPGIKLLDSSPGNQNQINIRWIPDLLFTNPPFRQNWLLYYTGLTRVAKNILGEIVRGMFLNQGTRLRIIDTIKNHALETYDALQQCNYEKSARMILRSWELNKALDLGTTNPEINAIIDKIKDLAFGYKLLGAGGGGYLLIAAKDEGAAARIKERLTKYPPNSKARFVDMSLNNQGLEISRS
Source text: thermal shift, SYPRO orange on TxFKP

[5] = substrate: C[C@@H]1O[C@H](OP(=O)(O)O)[C@@H](O)[C@H](O)[C@@H]1O; test: purified protein; assay type: biochemical, Thermophagus xiamenensis; settings: pyrophosphorylase activity, 100 μM GTP, 10 mM MgCl2, pH 7.5, 37 °C
[6] = substrate: Nc1nc2c(ncn2[C@@H]2O[C@H](COP(=O)(O)OP(=O)(O)OP(=O)(O)O)[C@@H](O)[C@H]2O)c(=O)[nH]1; test: purified protein; assay type: biochemical, Thermophagus xiamenensis; settings: pyrophosphorylase activity, 250 μM Fuc-1-P, 10 mM MgCl2, pH 7.5, 37 °C
[7] = substrate: Nc1ncnc2c1ncn2[C@@H]1O[C@H](COP(=O)(O)OP(=O)(O)OP(=O)(O)O)[C@@H](O)[C@H]1O; test: purified protein; assay type: biochemical, Thermophagus xiamenensis; settings: kinase activity, 1 mM L-fucose, 10 mM MnCl2, pH 7.5, 37 °C

BfFKP (Bacteroides fragilis)
Km [1]: 120 ± 60 µM
kcat [1]: 9 ± 3 s⁻¹
kcat/Km [1]: 70000 ± 50000 M⁻¹ s⁻¹
Km [2]: 140 ± 30 µM
kcat [2]: 13 ± 3 s⁻¹
kcat/Km [2]: 90000 ± 30000 M⁻¹ s⁻¹

C[C@@H]1OC(O)[C@@H](O)[C@H](O)[C@@H]1O (stereo partly drawn) [L-fucose]
ΔTm1 (°C) [3]: 2.0 ± 0.0 °C
Δ Tm2 (°C) [4]: 1.8 ± 0.2 °C

B1: TxFKP (Thermophagus xiamenensis) (protein)
chain: T2 sequence (A0A1I2DJ10 1-954)
notes: codon-optimized gene in pET-28a, E. coli BL21(DE3) with GroEL/GroES/Trigger Factor; Ni-IMAC; GroEL (~60 kDa) contaminant remains
Km [5]: 66 ± 20 µM
kcat [5]: 4.8 ± 0.6 s⁻¹
kcat/Km [5]: 70000 ± 30000 M⁻¹ s⁻¹
Km [6]: 27 ± 11 µM
kcat [6]: 8 ± 1.1 s⁻¹
kcat/Km [6]: 300000 ± 130000 M⁻¹ s⁻¹
Km [7]: 1000 ± 300 µM
kcat [7]: 0.74 ± 0.07 s⁻¹
kcat/Km [7]: 700 ± 300 M⁻¹ s⁻¹
